Data: the supplement of paper PMC7877785
± gives the uncertainty stated by the source.

Assay: self-splicing fitness, log relative to wild type (ln ratio); higher = more splicing; Tetrahymena group I intron in knt gene, E. coli kanamycin selection, DiMSum; sequences stand for … in CUCUCU…GGAGGGAAAAGUUAUCAGGCAUGCACCUGGUAGCUAGUCUUUAAACCAAUAGAUUGCAUCGGUUUAAAAGGCAAGACCGUCAAAUUGCGGGAAAGGGGUCAACAGCCGUUCAGUACCAAGUCUCAGGGGAAACUUUGAGAUGGCCUUGCAAAGGGUAUGGUAAUAAGCUGACGGACAUGGUCCUAACCACGCAGCCAAGUCCUAAGUCAACAGAUCUUCUGUUGAUAUGGAUGCAGUUCACAGACUAAAUGUCGGUCGGGGAAGAUGUAUUCUUCUCAUAAGAUAUAGUCGGACCUCUCCUUAAUGGGAGCUAGCGGAUGAAGUGAUGCAACACUGGAGCCGCUGGGAACUAAUUUGUAUGCGAAAGUAUAUUGAUUAGUUUUGGAGUACUCGUGGUCG
In short: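 Pooled colonies went to amplicon sequencing on an Illumina HiSeq 2500 after six replicate transformations. The plates were LB agar with 100 μg/mL carbenicillin, 50 μM IPTG and 0.2% rhamnose, with or without 25 μg/mL kanamycin, incubated overnight at 37°C or 30°C. The E. coli BL21(DE3) library had all eight P1ex-region intron nucleotides randomised, the intron placed in the knt kanamycin-resistance gene on pET-22b(+). DiMSum fitness is the error-weighted combination of replicate fold changes, kanamycin against none, normalised to wild type.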

Row | Sequence | self-splicing fitness (ln) (30 °C) | self-splicing fitness (ln) (37 °C)
1 | AAGGAGCAAUAUUACGGAUA | -3.9 ± 0.35 | -1.99 ± 0.29
2 | UCUUAGCAAUAUUACGACAG | -2.9 ± 0.24 | -1.56 ± 0.22
3 | GCUAAGCAAUAUUACGAUCG | -1.1 ± 0.1 | -0.997 ± 0.12
4 | UUGAAGCAAUAUUACGUCGC | -3.48 ± 0.23 | -1.49 ± 0.24
5 | GACAAGCAAUAUUACGAAGU | -4.61 ± 0.27 | -2.18 ± 0.14
6 | CCGUAGCAAUAUUACGACGU | -0.571 ± 0.075 | -0.205 ± 0.088
7 | GAUUAGCAAUAUUACGGCCA | -1.41 ± 0.19 | 0.41 ± 0.21
8 | GCUGAGCAAUAUUACGUUAA | -3.04 ± 0.34 | -2.78 ± 0.32
9 | UUGUAGCAAUAUUACGAGCA | -1.49 ± 0.24 | -0.799 ± 0.2
10 | UGGUAGCAAUAUUACGCUGA | -1.07 ± 0.15 | -0.679 ± 0.11
11 | CCUAAGCAAUAUUACGUAUA | -3 ± 0.15 | -2.67 ± 0.17
12 | AUACAGCAAUAUUACGCACG | -2.13 ± 0.12 | -0.772 ± 0.15
13 | GAAGAGCAAUAUUACGCGAG | -2.82 ± 0.17 | -2.16 ± 0.23
14 | UACCAGCAAUAUUACGAAGC | -3.64 ± 0.25 | -2.17 ± 0.18
15 | AAAAAGCAAUAUUACGGAAU | -2.25 ± 0.11 | -1.36 ± 0.13
16 | UAACAGCAAUAUUACGAAGA | -2.48 ± 0.14 | -1.33 ± 0.11
17 | AUGUAGCAAUAUUACGCCGU | -1.43 ± 0.14 | -0.29 ± 0.14
18 | CGUGAGCAAUAUUACGACGG | -0.058 ± 0.098 | 0.525 ± 0.11
19 | GCUGAGCAAUAUUACGAUAG | -1.35 ± 0.25 | -1.83 ± 0.26
20 | GAGCAGCAAUAUUACGGGAU | -3.27 ± 0.27 | -3.1 ± 0.23
21 | GCACAGCAAUAUUACGACGA | -0.897 ± 0.13 | 0.243 ± 0.15
22 | CGCAAGCAAUAUUACGUCGU | -3.27 ± 0.13 | -2.2 ± 0.1
23 | GGAUAGCAAUAUUACGGAGC | -3.05 ± 0.26 | -2.51 ± 0.25
24 | UCUUAGCAAUAUUACGGGAC | -3.78 ± 0.24 | -1.8 ± 0.32

Row | Sequence | self-splicing fitness (ln) (30 °C) | self-splicing fitness (ln) (37 °C)
25 | CCUGAGCAAUAUUACGACGU | -2.28 ± 0.14 | -0.0399 ± 0.14
26 | CUCGAGCAAUAUUACGGUAC | -2.82 ± 0.22 | -2.84 ± 0.4
27 | AUCUAGCAAUAUUACGAGCA | -0.993 ± 0.18 | -0.654 ± 0.2
28 | ACCCAGCAAUAUUACGUCCA | -1.27 ± 0.12 | -0.696 ± 0.16
29 | CCGCAGCAAUAUUACGCGCC | -2.71 ± 0.25 | -2.02 ± 0.47
30 | GUGCAGCAAUAUUACGUUGC | -3.82 ± 0.31 | -2.93 ± 0.31
31 | UAGAAGCAAUAUUACGCCCC | -3.03 ± 0.2 | -1.63 ± 0.23
32 | UUCUAGCAAUAUUACGUAAG | -2.51 ± 0.15 | -0.938 ± 0.15
33 | AGCUAGCAAUAUUACGUAAU | -3.29 ± 0.16 | -0.924 ± 0.11
34 | AGGCAGCAAUAUUACGCGAU | -4.3 ± 0.42 | -1.93 ± 0.21
35 | GCUCAGCAAUAUUACGACGG | -2.33 ± 0.18 | -1.3 ± 0.16
36 | CACUAGCAAUAUUACGCUCC |  | -1.46 ± 0.2
37 | UUCUAGCAAUAUUACGUGCA | -1.23 ± 0.13 | -1.59 ± 0.16
38 | ACGUAGCAAUAUUACGUUCA | -2.31 ± 0.13 | -0.777 ± 0.12
39 | CAGUAGCAAUAUUACGACCG | 0.558 ± 0.16 | -0.0835 ± 0.2
40 | AUCGAGCAAUAUUACGGUGC | -2.54 ± 0.16 | -3.15 ± 0.43
41 | AAGAAGCAAUAUUACGUUGC | -4.64 ± 0.31 | -3.65 ± 0.32
42 | CCCCAGCAAUAUUACGCCAC | -3.09 ± 0.13 | -0.923 ± 0.16
43 | UUACAGCAAUAUUACGACAG | -1.02 ± 0.068 | -0.222 ± 0.083
44 | AUCCAGCAAUAUUACGGGAA | -1.17 ± 0.079 | -0.654 ± 0.082
45 | ACAUAGCAAUAUUACGGGUC | -3.93 ± 0.25 | -3.24 ± 0.28
46 | UCUUAGCAAUAUUACGUCGU | -2.2 ± 0.12 | -1.92 ± 0.12
47 | CACCAGCAAUAUUACGCCGU | -2.65 ± 0.13 | -2.55 ± 0.18
48 | CAGAAGCAAUAUUACGUCAU |  | -2.9 ± 0.25
